{"source": "patent US20120178697A9", "target": "PDZ domain (residues 247 through 341) of mouse Dvl-1 (mouse) (UniProt P51141)", "assay": "method not stated; called 'experimental data', at 25° C"}
{"substance": "Dapper peptide", "values": [{"measurement": "Kd", "value": 10, "unit": "µM"}]}
